# Test results taken from the RNAGym collection of RNA variant scans (doi:10.7554/elife.90254).
# B1: OR4K15 (parent)
# chain: GUUAACGGUCAUAGGCCAUGGAAACUAGGAGCACCAUUUCGCUGCCAGUGAAGAAAUGAACAAAGAAAAUCUGGGCCAGGCAGGCAUCAAAAGAAAUAGUCUUGCGCUCAACCAGAAAGUCUGUAAUCAUUUUAAGGGUA
# Variants of: B1
# Experiment: self-cleavage, relative activity (ratio to wild type); higher = more cleavage; in vitro, sequencing; the parent is a self-cleaving ribozyme
row,Variant,self-cleavage
1,GUUAACGGUCAUAGGCCAUGGAAACUAGGAGCACCAUUUCGCUGCCAGUGAAGAAAUGAACAGAGAAAAUCUGGGCCAGGCAGGCCUCAAAAGAAAUAGUCUUGCGCUCAACCAGAAAGUCUGUAAUCAUUUUAAGGGUA [A63G A86C],1.21
2,GUUAACGGUCAUAGGCCAUGGAAACUAGGAGCACCAUUUCGCUGCCAGUGAAGAAAUGAACAGAGAAAAUCUGGGCCAGGCAGGCGUCAAAAGAAAUAGUCUUGCGCUCAACCAGAAAGUCUGUAAUCAUUUUAAGGGUA [A63G A86G],1.47
3,GUUAACGGUCAUAGGCCAUGGAAACUAGGAGCACCAUUUCGCUGCCAGUGAAGAAAUGAACUAAGAAAAUCCGGGCCAGGCAGGCAUCAAAAGAAAUAGUCUUGCGCUCAACCAGAAAGUCUGUAAUCAUUUUAAGGGUA [A62U U72C],0.19
4,GUUAACGGUCAUAGGCCAUGGAAACUAGGAGCACCAUUUCGCUGCCAGUGAAGAAAUGAACACAGAAAAUCUGGGCCAGGCAGGCAUCAAAAGAAAUAGUCUUGCGCUCAACCAGAAAGUCUGUAAUCAUUUUAAGGGCA [A63C U139C],1.97
5,GUUAACGGUCAUAGGCCAUGGAAACUAGGAGCACCAUUUCGCUGCCAGUGAAGAAAUGAACAGAGAAAAUCUGGGCCAGGCAGGCAUCAAAGGAAAUAGUCUUGCGCUCAACCAGAAAGUCUGUAAUCAUUUUAAGGGUA [A63G A92G],1.66
6,GUUAACGGUCAUAGGCCAUGGAAACUAGGAGCACCAUUUCGCUGCCAGUGAAGAAAUGAACAGAGAAAAUCUGGGCCAGGCAGGCAUCAAAAGAAAUAGUCUUGCGCUCAGCCAGAAAGUCUGUAAUCAUUUUAAGGGUA [A63G A111G],0.02
7,GUUAACGGUCAUAGGCCAUGGAAACUAGGAGCACCAUUUCGCUGCCAGUGAAGAAAUGAACAGAGAAAAUCUGGGCCAGGCAGGCAUCAAAAGAAAUAGUCUUGCGCUCACCCAGAAAGUCUGUAAUCAUUUUAAGGGUA [A63G A111C],0.02
8,GUUAACGGUCAUAGGCCAUGGAAACUAGGAGCACCAUUUCGCUGCCAGUGAAGAAAUGAACAGAGAAAAUCUGGGCCAGGCAGGCAUCAAAAGAAAUAGUCUUGCGCUCAACCAGAAGGUCUGUAAUCAUUUUAAGGGUA [A63G A118G],0.83
9,GUUAACGGUCAUAGGCCAUGGAAACUAGGAGCACCAUUUCGCUGCCAGUGAAGAAAUGAACAGAGAAAAUCUGGGCCAGGCAGGCAUCAAAAGAAAUAGUCUUGCGCUCAACCAGAAUGUCUGUAAUCAUUUUAAGGGUA [A63G A118U],0.84
10,GUUAACGGUCAUAGGCCAUGGAAACUAGGAGCACCAUUUCGCUGCCAGUGAAGAAAUGAACAGAGAAAAUCUGGGCCAGGCAGGCAUCAAAAGAAAUAGUCUUGCGCUCAACCAGGAAGUCUGUAAUCAUUUUAAGGGUA [A63G A116G],1.17
11,GUUAACGGUCAUAGGCCAUGGAAACUAGGAGCACCAUUUCGCUGCCAGUGAAGAAAUGAACAGAGAAAAUCUGGGCCAGGCAGGCAUCAAGAGAAAUAGUCUUGCGCUCAACCAGAAAGUCUGUAAUCAUUUUAAGGGUA [A63G A91G],0.98
12,GUUAACGGUCAUAGGCCAUGGAAACUAGGAGCACCAUUUCGCUGCCAGUGAAGAAAUGAACAGAGAAAAUCUGGGCCAGGCAGGCAUCAAAAGAAAUAGUCUUGCGCUCAACCAGAAAGUCUGUAAUCUUUUUAAGGGUA [A63G A129U],0.61
13,GUUAACGGUCAUAGGCCAUGGAAACUAGGAGCACCAUUUCGCUGCCAGUGAAGAAAUGAACAGAGAAAAUCUGGGCCAGGCAGGCAUCAAAAGAAAUAGUCUUGCGCUCAACCAGAAAGUCUGUAAUCGUUUUAAGGGUA [A63G A129G],0.9
14,GUUAACGGUCAUAGGCCAUGGAAACUAGGAGCACCAUUUCGCUGCCAGUGAAGAAAUGAACAGAGAUAAUCUGGGCCAGGCAGGCAUCAAAAGAAAUAGUCUUGCGCUCAACCAGAAAGUCUGUAAUCAUUUUAAGGGUA [A63G A67U],1.45
15,GUUAACGGUCAUAGGCCAUGGAAACUAGGAGCACCAUUUCGCUGCCAGUGAAGAAAUGAACAGAGAGAAUCUGGGCCAGGCAGGCAUCAAAAGAAAUAGUCUUGCGCUCAACCAGAAAGUCUGUAAUCAUUUUAAGGGUA [A63G A67G],1.6
16,GUUAACGGUCAUAGGCCAUGGAAACUAGGAGCACCAUUUCGCUGCCAGUGAAGAAAUGAACACAGAAAAUCUGGGCCAGGUAGGCAUCAAAAGAAAUAGUCUUGCGCUCAACCAGAAAGUCUGUAAUCAUUUUAAGGGUA [A63C C81U],0.41
17,GUUAACGGUCAUAGGCCAUGGAAACUAGGAGCACCAUUUCGCUGCCAGUGAAGAAAUGAACUAAGAAAAUCUGGGCCAGGCAGGCAUCAAAAAAAAUAGUCUUGCGCUCAACCAGAAAGUCUGUAAUCAUUUUAAGGGUA [A62U G93A],2.2
18,GUUAACGGUCAUAGGCCAUGGAAACUAGGAGCACCAUUUCGCUGCCAGUGAAGAAAUGAACUAAGAAAAUCUGGGCCAGGCAGGCAUUAAAAGAAAUAGUCUUGCGCUCAACCAGAAAGUCUGUAAUCAUUUUAAGGGUA [A62U C88U],2.34
19,GUUAACGGUCAUAGGCCAUGGAAACUAGGAGCACCAUUUCGCUGCCAGUGAAGAAAUGAACAGAGAACAUCUGGGCCAGGCAGGCAUCAAAAGAAAUAGUCUUGCGCUCAACCAGAAAGUCUGUAAUCAUUUUAAGGGUA [A63G A68C],2.21
20,GUUAACGGUCAUAGGCCAUGGAAACUAGGAGCACCAUUUCGCUGCCAGUGAAGAAAUGAACAGAGAAGAUCUGGGCCAGGCAGGCAUCAAAAGAAAUAGUCUUGCGCUCAACCAGAAAGUCUGUAAUCAUUUUAAGGGUA [A63G A68G],1.41
21,GUUAACGGUCAUAGGCCAUGGAAACUAGGAGCACCAUUUCGCUGCCAGUGAAGAAAUGAACUAAGAAAAUCUGGGCCAGGCAGGCACCAAAAGAAAUAGUCUUGCGCUCAACCAGAAAGUCUGUAAUCAUUUUAAGGGUA [A62U U87C],1.57
